Earlier results on one substance are cited in publication PMC3164524.

A word on the Kd: it is the constant that tells how readily two partners part at equilibrium.

This data set concerns the target pYAQL peptide. Put plainly: SPR.

In the case of SHP-2 N-SH2 (from UniProt Q06124), the Kd was 260 nM.
